Laboratory results as given in patent US20040006782A1.

Biological target: nicotinic acetylcholine receptor containing the alpha6 subunit (mouse, native in brain of wild type animals) (mouse), Q9R0W9
Sequence (Q9R0W9 31-494, chain 1 of 2): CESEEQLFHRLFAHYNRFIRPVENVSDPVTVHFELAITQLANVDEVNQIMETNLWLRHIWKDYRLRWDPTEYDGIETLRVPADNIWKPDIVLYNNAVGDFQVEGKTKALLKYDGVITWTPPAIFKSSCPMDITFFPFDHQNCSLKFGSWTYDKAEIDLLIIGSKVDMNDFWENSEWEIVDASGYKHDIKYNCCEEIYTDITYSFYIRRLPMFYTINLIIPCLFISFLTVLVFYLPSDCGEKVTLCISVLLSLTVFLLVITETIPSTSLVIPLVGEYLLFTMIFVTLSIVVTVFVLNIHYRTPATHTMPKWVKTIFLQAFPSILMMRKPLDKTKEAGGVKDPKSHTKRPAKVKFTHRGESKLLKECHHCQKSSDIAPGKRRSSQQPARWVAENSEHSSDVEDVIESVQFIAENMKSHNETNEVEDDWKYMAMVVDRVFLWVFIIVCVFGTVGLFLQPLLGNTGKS
Sequence (Q9ERK7 26-501, chain 2 of 2, further chain): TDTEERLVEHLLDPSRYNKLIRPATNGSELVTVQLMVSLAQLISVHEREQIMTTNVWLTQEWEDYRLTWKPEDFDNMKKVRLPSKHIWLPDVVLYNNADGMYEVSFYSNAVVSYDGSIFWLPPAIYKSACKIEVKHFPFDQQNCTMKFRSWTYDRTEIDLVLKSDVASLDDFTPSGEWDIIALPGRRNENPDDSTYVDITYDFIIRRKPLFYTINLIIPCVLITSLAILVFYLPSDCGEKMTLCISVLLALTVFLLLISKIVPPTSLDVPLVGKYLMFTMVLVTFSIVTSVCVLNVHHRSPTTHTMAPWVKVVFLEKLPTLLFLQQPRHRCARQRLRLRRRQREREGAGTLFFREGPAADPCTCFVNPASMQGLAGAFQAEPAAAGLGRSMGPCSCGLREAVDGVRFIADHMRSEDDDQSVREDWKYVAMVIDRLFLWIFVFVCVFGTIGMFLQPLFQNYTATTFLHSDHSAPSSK

B1: α-conotoxin MII, P56636 49-64 (peptide)
peptide: GCCSNPVCHLEHSNLC
modifications: not checked
Question: How did the share of epibatidine binding sites sensitive to αCtxMII turn out when B1 was run?
Answer: 20%
